Measured values taken from the nanobody polyreactivity screen of Harvey et al. (2022).

Assay: yeast display, Sf9 membrane polyspecificity reagent, FACS + sequencing; frameworks hold sequencing errors
Method in brief: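 Nanobodies came from a synthetic yeast display library in Saccharomyces cerevisiae BJ5465, induced with galactose for 36–48 hours and stained for 1 hour at 4 °C with 10% biotinylated, detergent-solubilized Sf9 membrane reagent. Cells were enriched on streptavidin microbeads and then FACS-sorted, with low and high (top ~1%) gates set on anti-HA fluorescence for expression and streptavidin fluorescence for reagent binding. Each polyreactivity label reflects the gate a clone came from. Genes were amplified by colony PCR, sequenced by MiSeq 2 × 250 and filtered by CDR length.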

Sequence	polyreactivity (PSR sort gate)
QVQLVESGGGLVQAGGSLRLSCAASGSTFKIYAMGWYRQAPGKERELVAVITSGGRTNYADSGKGRFTISRDNAKNTVYLQMNSLKPEDTAVYYCARGRSIHSSNRLEYWGQGTQVTVSS	high polyreactivity
QVQLVESGGGLVQAGGSLRLSCAASGSTFKKYVMGWYRQAPGKERELVAAISSTGRTNYADSVKGRFTISRDNAKNTVYLQMNSLKPEDTAVYYCAKRYRKYSLGPPGNDYWGQGTQVTVSS	high polyreactivity
QVQLVESGGGLVQAGGSLRLSCAASGSTFKLYAMGWYRPAPGKERELVAAITRSGTRTYYADSVKGRFTISRDNAKNTVYLQMNSLKPEDTAVYYCAADGYRISGYDYWGQGTQVTVSS	high polyreactivity
QVQLVESGGGLVQAGGSLRLSCAASGSTFKPNVMGWYRPAPGKERELVAAITSTDDRTYYADSVKGRFTISRDNAKNTVYLQMNSLKPEDTAVYYCNRPYAWYGYIYNYWGQGTQVTVSS	low polyreactivity
QVQLVESGGGLVQAGGSLRLSCAASGSTFKQYTMGWYRQAPGKERELVAAISWSGTSTYYADSVKGRFTISRDNAKNTVYLLMNSLKAEDTAVYYCAAVSYVWQYYYWGQGTQVTVSS	high polyreactivity
QVQLVESGGGLVQAGGSLRLSCAASGSTFKRNAMGWYRQAPGKERELVAAISFRGGSTYYADSVKGRFTISRDNAKNTVYLQMNSLKPEDTAVYSCAAGIYRIRGGGISFDYWGQGTQVTVSS	high polyreactivity
QVQLVESGGGLVQAGGSLRLSCAASGSTFKRYAMGWYRQAPGKDRELVAAIRRGGITNYADSVKGRFTISRDNAKNTVYLQMNSLKPEDTAVYYCAKDGVTYPYSYEYDYWGQGTQVTVSS	low polyreactivity
QVQLVESGGGLVQAGGSLRLSCAASGSTFKRYAMGWYRQAPGKERELVAAISSGGTTNYADSVKGRFTISRDNAKNTVYLQMNSLKPEDTAVYYCNRKFRYSSHTNYYYWGQGTQVTVSS	high polyreactivity
QVQLVESGGGLVQAGGSLRLSCAASGSTFKRYAMGWYRQAPGKERELVAAITNGDRTNYADSVKGRFTISRDNAKKTVYLQMNSLKPEDTAVYYCAAAYSRYTSRFYYWGQGTQVTVSS	high polyreactivity
QVQLVESGGGLVQAGGSLRLSCAASGSTFKRYAMGWYRQAPGKERELVASISSGGSTNYADSVKGRFTISRDNAKNTVYLQMNSLKPEDTAVYYCATYLVTGGGLNVRYDYWGQGTQVTVSS	high polyreactivity
QVQLVESGGGLVQAGGSLRLSCAASGSTFKRYAMGWYRQAPGKERELVASISSGGSTNYVDSVKGRFTISRDNAKNTVYLQMNSLKPEDTAVYYCAVSYRSFRYYWERYYSWGQGTQVTVSS	high polyreactivity
QVQLVESGGGLVQAGGSLRLSCAASGSTFKRYAMGWYRQAPGKERELVATINSGTSTNYADSVKGRFTISRDNAKNTVYLEMNSLKPEETAVYYCAKSFRRSVGGYGYDYWGQGTQVSVSS	low polyreactivity
QVQLVESGGGLVQAGGSLRLSCAASGSTFKRYTMGWYRQAPGKERELVAAISTSSGSTYFADSVKGRFTISRDNAKISVYLQMNSLKPEDSAVYYCDAVRLRQTYPKYNYWGQGTQVTVSS	high polyreactivity
QVQLVESGGGLVQAGGSLRLSCAASGSTFKTYAMGWYRQAPGKEREFVASISTSGGSTYYADSVKGRFTISRDNAKNTVYLQMNSLKPEDTAVYYCAAKGRSYGVTRMYYWGQGTQVTVSS	high polyreactivity
QVQLVESGGGLVQAGGSLRLSCAASGSTFKTYAMGWYRQAPGKESELVAAISWSGGSTYYADSVKGRFTISRDNAKNTVYLQMNSLKPEDTAVYYCNAGWGYPSPWFIGEYWGQGTQVTVSS	low polyreactivity
QVQLVESGGGLVQAGGSLRLSCAASGSTFKVYAMRWYRQAPGKERELVARISTRVGSTYYADSVKGRFTISRDNAKNSVYLQMNSLKAEDSAVYYCNARWWDPPYYYWGQGTQVTVSS	high polyreactivity
QVQLVESGGGLVQAGGSLRLSCAASGSTFKVYTMGWYRQAPGKERELVAAITGGGGSTYYADSVKGRFTISRDNAKNTVSLQMNSLKPEDTAVYYCAAQKRGPGYPYYYWGQGTQVTVSS	high polyreactivity
QVQLVESGGGLVQAGGSLRLSCAASGSTFKWYAMGWYRQAPGKERELVAAITVSGDSTYYADSVKGRFTISRDNAKNTVYLQMNSLKPEDTAVYYCAKDYQGITPYDYWGQGTQVTVSS	low polyreactivity
QVQLVESGGGLVQAGGSLRLSCAASGSTFKWYGRGWSRQAPGKDRELVATINYSSSTTYYADSVKGRFTISRDNAKNTVYLQMNSLKPEDTAVYYCAKGVYWGTKSTYDYWGQGTQVTVSS	high polyreactivity
QVQLVESGGGLVQAGGSLRLSCAASGSTFKYNAMGWYRQAPGKERELDAAISSSGGSTSYADSVKGRFTISRDNAKNTVYLQMNSLKPEDTAVYYCAADSYPAYLGFVGFDYWGQGSQVTVSS	low polyreactivity
QVQLVESGGGLVQAGGSLRLSCAASGSTFKYNAMGWYRQAPGKERELVASISRSGGSTYYADSVKGRFTISRDNAKNTVYLQMNSLKPEDTAVYYCNVRRFVHYEYWGHGTQVTVSS	high polyreactivity
QVQLVESGGGLVQAGGSLRLSCAASGSTFKYNTMGWYRQAPGKKGELVAAITISGGTTRYADSVKGRFTISRDNAKNTVYLQMNSLKPEDTAVYYCAARVYTYYYDLHKRYYWGQGTQVTVSS	high polyreactivity

Sequence	polyreactivity (PSR sort gate)
QVQLVESGGGLVQAGGSLRLSCAASGSTFKYYAMGWYRPAPGKERELVAAISGRGGRTYYADSVKGRFTISRDNAKNTVYLQMNSLKPEDTAVYYCNAPFLGAHHYGYEYWGQRTQVTVSS	high polyreactivity
QVQLVESGGGLVQAGGSLRLSCAASGSTFKYYAMGWYRQAAGKERELVATITRRSGSTYYADSVKGRFTISRDNAKNTVYLQMNSLKPEDTAVYYCNAYGPYKYNYWGQGTQVTVSS	high polyreactivity
QVQLVESGGGLVQAGGSLRLSCAASGSTFKYYAMGWYRQAPGKEMELVAAIRGGGSTNYADSVTGPFTISRDNAKNTVYLQMNSLKPEDTAVYYCAARYGWYRGYNYWGQGTQVTVSS	high polyreactivity
QVQLVESGGGLVQAGGSLRLSCAASGSTFKYYAMGWYRQAPGKERELVAAISASGGTTYYADSVKGRFTISRDNAKNTVYVQMNSLKPEDTAVYDCAARYLTTFSRTDMEYWGQGTQVTVSS	low polyreactivity
QVQLVESGGGLVQAGGSLRLSCAASGSTFKYYAMGWYRQAPGKERELVATITRRSGSTYYADSVKGRFTISRDNAKNTVYLQMNSLKPEDTAVYYCNAYGPYKYNYWGQGTQVTVSS	high polyreactivity
QVQLVESGGGLVQAGGSLRLSCAASGSTFLDNTMGWYRQAPGKEREFVAAISSSVYSTYYADSVKGRFSISRDNAKNTVYLQMNSLKPEDTAVYFCAADRGFYPSLWDYDYWGQGTQVTVSS	low polyreactivity
QVQLVESGGGLVQAGGSLRLSCAASGSTFLDYAMGWYRQAPGKERELVAGINSGGSTNYADSVKGRFTISRDNAKNTVYLQMNSLKPEDTAVYYCAADRVGNEYDYWGQGTQVTVSS	low polyreactivity
QVQLVESGGGLVQAGGSLRLSCAASGSTFLDYTMGWYRQAPGKERELVAVISYRAGSTYYADSVKGRFTISRDNAKNTVYLQMNSLKPEDTAVYYCNADYYNYWLRRRYVWYESWGQGTQVTVSS	low polyreactivity
QVQLVESGGGLVQAGGSLRLSCAASGSTFLGNAMGWYRQAPGKEREFVAAITVSGGSTYYADSVKGRFTISRDNAKNTVYLQMNSLKPEDTAVYYCAARYLRYSSKTIQNEDYWGQVTQVTVSS	high polyreactivity
QVQLVESGGGLVQAGGSLRLSCAASGSTFLGNAMGWYRQAPGKERELVAAISGRGGSTYYADSVKGRFTISRDNAKNTVYLQMNSLKPEDTAVYYCAAPLYHYVQYGYWGQGTQVTVSS	high polyreactivity
QVQLVESGGGLVQAGGSLRLSCAASGSTFLGNAMGWYRQAPGKERELVASIRWTTGSTYYADSVKGRFTISRDNAKNTVYLQMNSLKPEDTAVYYCAKGLYVQFDYWGLGTQVTVSS	low polyreactivity
QVQLVESGGGLVQAGGSLRLSCAASGSTFLGYAMGWYRQAPGKERELVAAITYSAGSTYYADSVKGRFTISRDNAKNTVYLQMNSLKPEDTAVYYSAKRYSGYDHWGQGTQVTVSS	low polyreactivity
QVQLVESGGGLVQAGGSLRLSCAASGSTFLGYAMGWYRQAPGKERELVAVIDNGGDTYYADSVKGRFTISRDNAKNTVYLQINSLKPEDTEVYYCAADLSYLGYWEYDYWGQGTQVTVSS	low polyreactivity
QVQLVESGGGLVQAGGSLRLSCAASGSTFLKNAMGWYRQAPGKERELVAAISYSTTRTYYADSVKGRFTISRDNAKNTVYLQMNSLKPEDTAVYSCNARWQEPLKYDYWGQGTQVTVSS	low polyreactivity
QVQLVESGGGLVQAGGSLRLSCAASGSTFLKNAMGWYRQAPGKERELVAAISYSTTRTYYADSVKGRFTISRDNAKNTVYLQMNSLKPEDTAVYYCNKASYWGSGFDYWGQGTQVTVSS	low polyreactivity
QVQLVESGGGLVQAGGSLRLSCAASGSTFLNYAMGWYRQAPGKERELVAAISFSGGRTYYADSVKGRFTISRDNAKNTVYLQMNSLKPEDTAVYYCAAGGWRGHYYWGQGTQVTVSS	high polyreactivity
QVQLVESGGGLVQAGGSLRLSCAASGSTFLNYAMGWYRQAPWKERELVAAISGRGGRTYYADSVKGRFTISRDNATNTVYLQMNSLKPEDTAVYYCANKRRGGYLYRQELDYWGQGTQVTVSS	high polyreactivity
QVQLVESGGGLVQAGGSLRLSCAASGSTFLPNAMGWYRQAPGTERELVATITFDGGSTYYADSVKGRFTISRDNAKNTVYLQMNSLKPEDTAVYYCNTVELYWRGYDYWGQGTQVTVSS	high polyreactivity
QVQLVESGGGLVQAGGSLRLSCAASGSTFLQNAMGWYRQAPGKEREFVAAISYTGANTYYADSVKGRFTISRDNAKNTVYLQMNSLKPEDTAVYYCNRYAKQYLSGTVPVNLDYWGQGTQVTVSS	high polyreactivity
QVQLVESGGGLVQAGGSLRLSCAASGSTFLRYAMGWYRQAPGKERELVAAINWSGGGTSYADSVKWRFTISRDNAKNTVYLQMNSLKPEDTEGYSCAAYFRYSYYWSEYWGQGTQVTVSS	high polyreactivity
QVQLVESGGGLVQAGGSLRLSCAASGSTFLRYAMGWYRQAPGKERELVAAISLSGGRTHYADSVKGRFTISRDNAKNTVYLQMNSLKPEDTAVYYCAARNTGPVQYYYWGQGTQVTVSS	low polyreactivity
